Reference: publication PMC10212915, “An ancient metabolite damage-repair system sustains photosynthesis in plants” (Nature Communications, 2023)

B1: MBP-AtCbbYA (Arabidopsis thaliana) (protein)
chain: CSASSSLTTLPSALLFDCDGVLVDTEKDGHRISFNDTFKERDLNVTWDVDLYGELLKIGGGKERMTAYFNKVGWPEKAPKDEAERKEFIAGLHKQKTELFMVLIEKKLLPLRPGVAKLVDQALTNGVKVAVCSTSNEKAVSAIVSCLLGPERAEKIKIFAGDVVPKKKPDPAIYNLAAETLGVDPSKCVVVEDSAIGLAAAKAAGMTCIVTKSGYTADEDFENADAVFDCIGDPPEERFDLAFCGSLLRKQFVS
B2: MBP-AtCbbYB (Arabidopsis thaliana) (protein)
chain: SKSRVSSPVSALPLRSLEALIFDCDGVILESENLHRQAYNDAFSHFDVRCPPSSSESLDWSLEFYDKFQNLVGGGKPKMRWYFKENGWPTSTIFDSPPQNDDDRAKLIDTLQDWKTERYKEIIKSGSVEPRPGVIRLMDEAKAAGKKLAVCSAATKSSVILCLENLIDIERFQGLDCFLAGDDVKEKKPDPSIYITAAEKLGVSVKDCLVVEDSVIGLQAATKAGMSCVITYTSSTSDQNFNDAIAVYPDLSNVKLKDLETLLQTIVTAA

Experiments:
Experiment in all cases: malachite green phosphate release assay
Type in all cases: biochemical, Arabidopsis thaliana
Conditions in all cases: MOPS-KOH pH 7.5, 100 mM KCl, 10 mM MgCl2, 25 °C
[1] = substrate: O=C(COP(=O)(O)O)[C@@H](O)[C@H](O)COP(=O)(O)O
Description: (§1) malachite green phosphate release assay on MBP-AtCbbYA

[2] = substrate: O=C(COP(=O)(O)O)[C@H](O)[C@H](O)COP(=O)(O)O
Description: as §1

[3] = substrate: O=C(COP(=O)(O)O)[C@@H](O)[C@H](O)COP(=O)(O)O; remark: listed apart in the source
Description: (§2) malachite green phosphate release assay on MBP-AtCbbYB

[4] = substrate: O=C(COP(=O)(O)O)[C@H](O)[C@H](O)COP(=O)(O)O; remark: listed apart in the source
Description: as §2

Protein | Km [1] | kcat [1] | kcat/Km [1] | Km [2] | kcat [2] | kcat/Km [2] | Km [3] | kcat [3] | kcat/Km [3] | Km [4] | kcat [4] | kcat/Km [4]
B1 | 40 ± 1 µM | 2.13 ± 0.04 s⁻¹ | 53000 ± 2000 M⁻¹ s⁻¹ | 4310 ± 110 µM | 0.043 ± 0.009 s⁻¹ | 10 ± 2 M⁻¹ s⁻¹ |  |  |  |  |  | 
B2 |  |  |  |  |  |  | 182 ± 30 µM | 0.54 ± 0.05 s⁻¹ | 3000 M⁻¹ s⁻¹ | 4840 ± 360 µM | 0.015 ± 0.002 s⁻¹ | 3.2 ± 0.4 M⁻¹ s⁻¹
